Experiments:
[1] = target: T1, cynomolgus CD3 on HSC-F cells (cynomolgus, UniProt Q95LI5 22-198); assay: flow cytometry, yeast-produced IgG 100 nM on HSC-F cells, pH 6.0
T1 construct: whole, on cells; also called Cyno HSC-F; cynomolgus HSC-F cells
Procedure: (§1) Anti-CD3 antibodies Antibody Nos. 1-13 were produced as aglycosylated IgGs comprising a IgG1 Fc region in yeast cells. Binding to human or cynomolgus CD3-expressing cells (human CD3+ Jurkat cells or cynomolgus HSC-F cells, respectively) at pH 7.4 and pH 6.0 were measured by fluorescence-activated single cell sorting (FACS). Normalized cell binding (NCB) values were calculated based on median fluorescence intensity (MFI) values, CD3 negative Jurkat cells were used as a negative control.
(§2) Cell binding assay, CD3+ and CD3− human Jurkat cells (ATCC) and cynomolgus HSC-F cells (NIH) were thawed and washed with cold PBSF buffer, pH 7.4 (PBS+0.1% BSA, pH 7.4). About 200,000 cells were aliquoted per well of a 96-well plate (FACS Assay Plate VWR BD 353263) and pelleted by centrifugation (5 minutes at 500×g). The cells were washed with either PBSF pH 7.4 or PBSF pH 6.0 (PBS+0.1% BSA, pH 6.0), and then resuspended in 100 μl in either PBSF pH 7.4 or PBSF pH 6.0 with IgG antibody (100 nM) produced in yeast as described above. The mixture (cells+antibody) was incubated for 20 minutes on ice, then washed twice with either PBSF pH 7.4 or PBSF pH 6.0. Cells were resuspended in 50 μl of propidium iodide (Roche; 1:500 dilution) and anti-human IgG-RPE (Southern Biotech; 1:100 dilution) prepared in either PBSF pH 7.4 or PBSF pH 6.0, then incubated for 20 minutes on ice in the dark before cells were washed twice with either PBSF pH 7.4 or PBSF pH 6.0. Binding was analyzed on FACS Canto 11.

[2] = target: T1, cynomolgus CD3 on HSC-F cells; assay: flow cytometry, yeast-produced IgG 100 nM on HSC-F cells, pH 7.4
Procedure: as §1, §2

[3] = target: T2, human CD3 on CD3+ Jurkat cells (human, UniProt P07766 23-207); assay: flow cytometry, yeast-produced IgG 100 nM on CD3+ Jurkat cells, pH 6.0
T2 construct: whole, on cells; The whole CD3 complex stands on the cells; also called Human CD3 Jurkat; human CD3+ Jurkat cells
Procedure: as §1, §2

[4] = target: T2, human CD3 on CD3+ Jurkat cells; assay: flow cytometry, yeast-produced IgG 100 nM on CD3+ Jurkat cells, pH 7.4
Procedure: as §1, §2

[5] = target: T3, cynomolgus CD3εδ-Fc heterodimer (Cy CD3ε Fc / CD3δ Fc-HIS) (cynomolgus, UniProt Q95LI8 22-100); assay: BLI (Octet), CHO-produced IgG on AHC sensor, CD3εδ-Fc 100 nM in solution, pH 6.0
T3 construct: range 22-100; Produced in HEK 293 cells; also called Cy CD3εδ Fc heterodimer; not shown: Fc-HIS part of CD3δ Fc-HIS
Procedure: (§3) Anti-CD3 antibodies Antibody Nos. 1-13 were produced as human IgG1 antibodies in yeast or CHO cells. IgGs produced in yeast were aglycosylated, CHO) produced IgGs had standard CH2 glycosylation. Binding affinity to human or cynomolgus CD3εδ-Fc at pH 7.4 and pH 6.0 was measured via biolayer interferometry (BLI) using the ForteBio OCTET® HTX system and analyzed using the ForteBio software.
(§4) Kinetics were analyzed using the 1:1 binding model.

[6] = target: T4, human CD3εδ-Fc heterodimer (Hu CD3ε Fc / CD3δ Fc-HIS) (human, UniProt P04234 22-100); assay: BLI (Octet), yeast-produced IgG on AHC sensor, CD3εδ-Fc 100 nM in solution, pH 6.0
T4 construct: range 22-100; Produced in HEK 293 cells with a heterologous signal peptide; heterodimer purified by Ni Sepharose and Mono Q; also called Hu CD3εδ Fc heterodimer; CD3εδ Fc-HIS heterodimer; not shown: Fc-HIS part of CD3δ Fc-HIS
Procedure: as §3, §4

[7] = target: T4, human CD3εδ-Fc heterodimer (Hu CD3ε Fc …); assay: SPR (Biacore 8K), yeast-produced Fab, monovalent, pH 6.0
Procedure: (§5) Anti-CD3 antibodies (Antibody Nos. 1-13) were produced as human IgG1 antibodies in yeast or Chinese hamster ovary (CHO) cells, and Fab fragments were generated from the IgG1 antibodies by papain digestion and purified IgGs produced in yeast were aglycosylated. CHO produced IgGs had standard CH2 glycosylation. […] Monovalent binding affinity to human or cynomolgus CD3εδ-Fc at pH 7.4 and pH 6.0 were measured via surface plasmon resonance (SPR) using the BIACORE® 8K (Cytiva, previously GE Healthcare Life Sciences) system and analyzed using BIACORE® Evaluation Software.
(§6) BIACORE® KD measurements (surface plasmon resonance; SPR). BIACORE® affinity measurements were performed generally as previously described. Briefly, human CD3εδ-Fc heterodimer produced as described above was immobilized to a NiNTA sensor chip in a BIACORE® 8K (Cytiva, previously GE Healthcare Life Sciences) to a response level of ˜500 RUs. […] The sensor chip was doubly regenerated between cycles using 0.35 M EDTA and 0.1 M NaOH. The resulting data were double reference subtracted and fit to a 1:1 binding model using BIACORE® Evaluation Software.

[8] = target: T4, human CD3εδ-Fc heterodimer (Hu CD3ε Fc …); assay: SPR (Biacore 8K), yeast-produced Fab, monovalent, pH 7.4
Procedure: as §5, §6

[9] = target: T3, cynomolgus CD3εδ-Fc heterodimer (Cy …); assay: BLI (Octet), yeast-produced IgG on AHC sensor, CD3εδ-Fc 100 nM in solution, pH 6.0
Procedure: as §3, §4

[10] = target: T3, cynomolgus CD3εδ-Fc heterodimer (Cy …); assay: BLI (Octet), yeast-produced IgG on AHC sensor, CD3εδ-Fc 100 nM in solution, pH 7.4
Procedure: as §3, §4

[11] = target: T4, human CD3εδ-Fc heterodimer (Hu CD3ε Fc …); assay: SPR (Biacore 8K), CHO-produced Fab, monovalent, pH 6.0
Procedure: as §5, §6

[12] = target: T3, cynomolgus CD3εδ-Fc heterodimer (Cy …); assay: as above
Procedure: as §5, §6

[13] = target: T4, human CD3εδ-Fc heterodimer (Hu CD3ε Fc …); assay: BLI (Octet), CD3εδ-Fc on AHC sensor, CHO-derived Fab 100 nM in solution, pH 6.0
[14] = target: T4, human CD3εδ-Fc heterodimer (Hu CD3ε Fc …); assay: BLI (Octet), yeast-produced IgG on AHC sensor, CD3εδ-Fc 100 nM in solution, pH 7.4
Procedure: as §3, §4

T4 sequence (chain, as listed by the source mutant, form in doubt, chain 1 of 2): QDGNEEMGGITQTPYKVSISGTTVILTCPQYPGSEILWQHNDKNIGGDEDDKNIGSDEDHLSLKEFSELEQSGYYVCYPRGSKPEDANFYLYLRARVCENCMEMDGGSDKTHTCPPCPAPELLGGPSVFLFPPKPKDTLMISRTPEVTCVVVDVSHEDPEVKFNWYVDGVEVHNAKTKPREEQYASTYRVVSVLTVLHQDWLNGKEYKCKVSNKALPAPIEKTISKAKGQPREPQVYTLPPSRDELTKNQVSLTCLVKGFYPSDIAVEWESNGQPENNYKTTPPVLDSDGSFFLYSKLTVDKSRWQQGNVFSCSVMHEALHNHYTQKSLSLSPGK
T4 sequence (P04234 22-100, stated change not applied, form in doubt, chain 2 of 2): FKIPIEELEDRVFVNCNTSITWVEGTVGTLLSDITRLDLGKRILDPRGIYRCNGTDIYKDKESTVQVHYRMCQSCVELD
T2 sequence (P07766 23-207): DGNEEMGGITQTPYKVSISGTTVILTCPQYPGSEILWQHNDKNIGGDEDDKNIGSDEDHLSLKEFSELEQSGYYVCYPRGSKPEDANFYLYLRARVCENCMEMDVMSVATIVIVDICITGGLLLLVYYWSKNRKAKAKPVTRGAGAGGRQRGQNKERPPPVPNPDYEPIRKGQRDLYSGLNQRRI
T1 sequence (Q95LI5 22-198): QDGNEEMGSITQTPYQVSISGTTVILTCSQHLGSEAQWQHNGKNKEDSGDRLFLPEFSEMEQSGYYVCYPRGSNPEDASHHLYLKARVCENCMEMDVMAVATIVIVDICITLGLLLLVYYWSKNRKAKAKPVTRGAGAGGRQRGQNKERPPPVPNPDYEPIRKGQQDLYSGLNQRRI
T3 sequence (chain, as listed by the source mutant, form in doubt, chain 1 of 2): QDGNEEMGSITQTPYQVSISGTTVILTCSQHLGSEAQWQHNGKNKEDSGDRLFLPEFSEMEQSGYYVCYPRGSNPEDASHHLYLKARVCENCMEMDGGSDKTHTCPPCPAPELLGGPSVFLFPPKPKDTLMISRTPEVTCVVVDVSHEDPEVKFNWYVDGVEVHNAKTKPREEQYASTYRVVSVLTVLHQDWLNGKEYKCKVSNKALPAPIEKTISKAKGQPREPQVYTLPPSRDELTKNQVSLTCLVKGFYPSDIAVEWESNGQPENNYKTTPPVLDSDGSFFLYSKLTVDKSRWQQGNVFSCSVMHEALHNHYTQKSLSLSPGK
T3 sequence (Q95LI8 22-100, stated change not applied, form in doubt, chain 2 of 2): as the sequence (P04234 22-100, stated change not applied, form in doubt, chain 2 of 2) above, with I5V, N15K, I20V, S32T, D33N, I34N, T64A, S74N counted along it

| NCB [1] | NCB [2] | NCB [3] | NCB [4] | Kd [5] [nM] | Kd [6] [nM] | Kd [7] [nM] | Kd [8] [nM] | Kd [9] [nM] | Kd [10] [nM] | Kd [11] [nM] | Kd [12] [nM] | Kd [13] [nM] | Kd [14] [nM] | Binder |
| --- | --- | --- | --- | --- | --- | --- | --- | --- | --- | --- | --- | --- | --- | --- |
|  |  |  |  |  |  | 5.76 | 33.4 |  |  |  |  |  |  | Fab of ADI-79848 (Antibody No. 9) (Fab, V domains shown, Fab made by papain digestion of the yeast-produced human IgG1; also called Antibody No. 9 Fab; ADI-79848 Fab) VH: QVQLVQSGAEVKKPGASVKVSCKASGFNIKDYYMHWVRQAPGQRLEWMGWIDLENANTIYDAKFQGRVTITRDTSASTAYMELSSLRSEDTAVYYCARDAYGRYFYDVWGQGTLVTVSS VL: DIVMTQSPDSLAVSLGERATINCKSSQSLLNARTGHNYLAWYQQKPGQPPKLLIYWASTRESGVPDRFSGSGSGTDFTLTISSLQAEDVAVYYCKQSYSRRTFGGGTKVEIK |
|  |  |  |  |  |  | 1.96 | 8.5 |  |  |  |  |  |  | Fab of ADI-79845 (Antibody No. 11) (Fab, V domains shown, Fab made by papain digestion of the yeast-produced human IgG1; also called Antibody No. 11 Fab; ADI-79845 Fab) VH: QVQLVQSGAEVKKPGASVKVSCKASGFNIKDYYMHWVRQAPGQRLEWMGWIDLENANTIYDAKFQGRVTITRDTSASTAYMELSSLRSEDTAVYYCARDAYGRYFYDVWGQGTLVTVSS VL: DIVMTQSPDSLAVSLGERATINCKSSQSLLNARTGKNYLAWYQQKPGQPPKLLIYWASTRESGVPDRFSGSGSGTDFTLTISSLQAEDVAVYYCKQSYSHRTFGGGTKVEIK |
| 548 | 106 | 197 | 62 | 17 | 5.23 |  |  | 5.26 | 20.5 |  |  |  | 13 | ADI-74968 (Antibody No. 6), human IgG1 (antibody, V domains shown, Tested as human IgG1 (yeast-produced aglycosylated, or CHO-produced)) VH: QVQLVQSGAEVKKPGASVKVSCKASGFNIKDYYMHWVRQAPGQRLEWMGWIDLENANTIYDAKFQGRVTITRDTSASTAYMELSSLRSEDTAVYYCARDAYHRYFYDVWGQGTLVTVSS VL: DIVMTQSPDSLAVSLGERATINCKSSQSLLNARTGHNYLAWYQQKPGQPPKLLIYWASTRESGVPDRFSGSGSGTDFTLTISSLQAEDVAVYYCKQSYSHRTFGGGTKVEIK |
| 551 | 74 | 181 | 39 | 33.5 | 6.68 |  |  | 6.56 | 21.8 |  |  |  | 13.7 | ADI-74965 (Antibody No. 3), human IgG1 (antibody, V domains shown, Tested as human IgG1 (yeast-produced aglycosylated, or CHO-produced)) VH: QVQLVQSGAEVKKPGASVKVSCKASGFNIKDYYMHWVRQAPGQRLEWMGWIDLENANTIYDAKFQGRVTITRDTSASTAYMELSSLRSEDTAVYYCARDAYHRYFYDVWGQGTLVTVSS VL: DIVMTQSPDSLAVSLGERATINCKSSQSLLNARTGHNYLAWYQQKPGQPPKLLIYWASTRESGVPDRFSGSGSGTDFTLTISSLQAEDVAVYYCKQSHSHRTFGGGTKVEIK |

The next lines start with the binder.

| Binder | NCB [1] | NCB [2] | NCB [3] | NCB [4] | Kd [5] [nM] | Kd [6] [nM] | Kd [7] [nM] | Kd [8] [nM] | Kd [9] [nM] | Kd [10] [nM] | Kd [11] [nM] | Kd [12] [nM] | Kd [13] [nM] | Kd [14] [nM] |
| --- | --- | --- | --- | --- | --- | --- | --- | --- | --- | --- | --- | --- | --- | --- |
| ADI-48587 (Antibody No. 2), human IgG1 (antibody, V domains shown, Tested as human IgG1 (yeast-produced aglycosylated, or CHO-produced); also called Ab No. 2; parent pH-dependent antibody) VH: QVQLVQSGAEVKKPGASVKVSCKASGFNIKDYYMHWVRQAPGQRLEWMGWIDLENANTIYDAKFQGRVTITRDTSASTAYMELSSLRSEDTAVYYCARDHYHRYFYDVWGQGTLVTVSS VL: DIVMTQSPDSLAVSLGERATINCKSSQSLLNARTGHNYLAWYQQKPGQPPKLLIYWASTRESGVPDRFSGSGSGTDFTLTISSLQAEDVAVYYCKQSHSHRTFGGGTKVEIK | 437 | 0 | 149 | 0 | 451 | 9.33 |  |  |  |  |  |  |  |  |
| ADI-74966 (Antibody No. 4), human IgG1 (antibody, V domains shown, Tested as human IgG1 (yeast-produced aglycosylated, or CHO-produced)) VH: QVQLVQSGAEVKKPGASVKVSCKASGFNIKDYYMHWVRQAPGQRLEWMGWIDLENANTIYDAKFQGRVTITRDTSASTAYMELSSLRSEDTAVYYCARDHYHRYFYDVWGQGTLVTVSS VL: DIVMTQSPDSLAVSLGERATINCKSSQSLLNARTGHNYLAWYQQKPGQPPKLLIYWASTRESGVPDRFSGSGSGTDFTLTISSLQAEDVAVYYCKQSYSHRTFGGGTKVEIK | 378 | 0 | 131 | 0 | 209 | 6.95 |  |  | 9.71 | 47.6 |  |  |  |  |
| Fab of ADI-74966 (Antibody No. 4) (Fab, V domains shown, Fab made by papain digestion of the human IgG1 (yeast- or CHO-produced); also called Antibody No. 4 Fab; ADI-74966 Fab) VH: QVQLVQSGAEVKKPGASVKVSCKASGFNIKDYYMHWVRQAPGQRLEWMGWIDLENANTIYDAKFQGRVTITRDTSASTAYMELSSLRSEDTAVYYCARDHYHRYFYDVWGQGTLVTVSS VL: DIVMTQSPDSLAVSLGERATINCKSSQSLLNARTGHNYLAWYQQKPGQPPKLLIYWASTRESGVPDRFSGSGSGTDFTLTISSLQAEDVAVYYCKQSYSHRTFGGGTKVEIK |  |  |  |  |  |  | 16.3 |  |  |  | 19.5 | 26.1 | 36.7 |  |
| ADI-74967 (Antibody No. 5), human IgG1 (antibody, V domains shown, Tested as human IgG1 (yeast-produced aglycosylated, or CHO-produced)) VH: QVQLVQSGAEVKKPGASVKVSCKASGFNIKDYYMHWVRQAPGQRLEWMGWIDLENANTIYDAKFQGRVTITRDTSASTAYMELSSLRSEDTAVYYCARDHYHRYFYDVWGQGTLVTVSS VL: GIVMTQSPDSLAVSLGERATINCKSSQSLLNARTGKNYLAWYQQKPGQPPKLLIYWASTRESGVPDRFSGSGSGTDFTLTISSLQAEDVAVYYCKQSHSHRTFGGGTKVEIK | 512 | 81 | 185 | 34 | 37 | 5.94 |  |  | 7.38 | 21.9 |  |  |  | 14.5 |
